From article PMC6802120, “Concatenation of 14-3-3 with partner phosphoproteins as a tool to study their interaction” (Scientific Reports, 2019)
Where “and” joins values, the source holds several entries; their conditions need not be identical. Equal values may be shown once.

B1: HSPB6 ACD (α-crystallin domain, residues 72-149) (domain or fragment, human, UniProt O14558 72-149, looked up)
chain: GHFSVLLDVKHFSPEEIAVKVVGEHVEVHARHEERPDEHGFVAREFHRRYRLPPGVDPAAVTSALSPEGVLSIQAAPA
notes: human small heat shock protein HSPB6, α-crystallin domain, residues 72-149; also called ACD dimer; isolated ACD
B2: 14-3-3-pB6 chimera (PKA-phosphorylated chimera of human 14-3-3σ(clu3)∆C and HSPB6 residues 12-153) (other)
chain: GPHMERASLIQKAKLAEQAERYEDMAAFMKGAVEKGEELSCEERNLLSVAYKNVVGGQRAAWRVLSSIEQKSNEEGSAAAGPEVREYREKVETELQGVCDTVLGLLDSHLIKEAGDAESRVFYLKMKGDYYRYLAEVATGDDKKRIIDSARSAYQEAMDISKKEMPPTNPIRLGLALNFSVFHYEIANSPEEAISLAKTTFDEAMADLHTLSEDSYKDSTLIMQLLRDNLTLWTGSGSLRRASAPLPGLSAPGRLFDQRFGEGLLEAELAALCPTTLAPYYLRAPSVALPVAQVPTDPGHFSVLLDVKHFSPEEIAVKVVGEHVEVHARHEERPDEHGFVAREFHRRYRLPPGVDPAAVTSALSPEGVLSIQAAPASAQA
modifications: phosphoserine at Ser16 of the HSPB6 part (phosphorylated by PKA)
notes: three extra residues left at the N-terminus after 3C cleavage; human 14-3-3σ, C-terminally truncated (14-3-3σ∆C), residues 1-231, with the surface entropy reduction 'clu3' replacements; linker; the full chimera 'followed the same principles' as CH1; human small heat shock protein HSPB6, residues 12-153 (out of 160): Ser16 phosphopeptide region, rest of the NTD and the α-crystallin domain; Could …
B3: unphosphorylated 14-3-3-B6 chimera (human 14-3-3σ(clu3)∆C and HSPB6 residues 12-153) (other)
chain: B2 chain
notes: three extra residues left at the N-terminus after 3C cleavage; human 14-3-3σ, C-terminally truncated (14-3-3σ∆C), residues 1-231, with the 'clu3' replacements; linker; the full chimera 'followed the same principles' as CH1; human small heat shock protein HSPB6, residues 12-153 (out of 160); also called unphosphorylated chimera; unphosphorylated version; source: E. coli BL21(DE3) without PKA, …
B4: pCH1 (phosphorylated peptidic chimera of 14-3-3σ(clu3)∆C with the HSPB6 phosphopeptide, residues 12-19) (other, human)
chain: GPHMERASLIQKAKLAEQAERYEDMAAFMKGAVEKGEELSCEERNLLSVAYKNVVGGQRAAWRVLSSIEQKSNEEGSAAAGPEVREYREKVETELQGVCDTVLGLLDSHLIKEAGDAESRVFYLKMKGDYYRYLAEVATGDDKKRIIDSARSAYQEAMDISKKEMPPTNPIRLGLALNFSVFHYEIANSPEEAISLAKTTFDEAMADLHTLSEDSYKDSTLIMQLLRDNLTLWTGSGSLRRASAPL
modifications: phosphoserine at Ser16 of the HSPB6 peptide (phosphorylated by PKA)
notes: three extra residues left at the N-terminus after 3C cleavage; human 14-3-3σ, C-terminally truncated, residues 1-231, with the 'clu3' replacements; linker; also called phosphorylated CH1; 14-3-3-phosphopeptide chimera; not shown: His6, N-terminal, cleaved

Key:
[1] = target: 14-3-3σ∆C (C-terminally truncated human 14-3-3σ, residues 1-231) (human) (UniProt P31947); test: SEC; fluorescence-assisted size-exclusion spectrochromatography, Superdex 200 Increase 5/150, SEC buffer; detection at 230 nm absorbance and Trp fluorescence (excitation 298 nm, emission 360 nm); proteins alone and mixed
[2] = target: the molecule itself; test: as above
[3] = target: the molecule itself; test: SEC; Superdex 200 Increase 5/150, 0.45 ml/min; 20 mM Tris-HCl pH 7.6, 150 mM NaCl, 0.5 mM EDTA, 1 mM DTT, 3% glycerol; low loaded protein concentration; apparent MW from column calibration
[4] = target: the molecule itself; test: SEC; same column and buffer as a1; higher loaded protein concentrations (second peak appears); apparent MW from column calibration; dimer to tetramer

Row | Molecule | stoichiometry N [1] | stoichiometry N [2] | stoichiometry N [3] | stoichiometry N [4]
1 | 14-3-3σ∆C (C-terminally truncated human 14-3-3σ, residues 1-231) (from UniProt P31947 1-231) (domain or fragment) | 2 |  |  | 
2 | B1 |  | 2 |  | 
3 | B2 |  |  | 2 | 4
4 | B3 |  |  | 2 | 4
5 | B4 |  | 4 and 2 |  | 
